T1: human BCMA with a His tag (ACROBiosystems, Catalog No.: BCA-H522y) (human)
T1 construct: Bought His-tagged recombinant protein; also called huBCMA-His; Recombinant human BCMA
T1 chain: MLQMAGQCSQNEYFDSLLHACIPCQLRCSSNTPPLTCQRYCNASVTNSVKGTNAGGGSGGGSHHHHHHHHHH

T2: BCMA on cells (293T cells transfected with BCMA; H929, MM.1S and U266 cell lines expressing BCMA) (human, UniProt Q02223 1-184)
T2 construct: H929, MM.1S and U266 carry the native protein; also called B-cell Maturation Antigen; TNFRSF17
T2 sequence: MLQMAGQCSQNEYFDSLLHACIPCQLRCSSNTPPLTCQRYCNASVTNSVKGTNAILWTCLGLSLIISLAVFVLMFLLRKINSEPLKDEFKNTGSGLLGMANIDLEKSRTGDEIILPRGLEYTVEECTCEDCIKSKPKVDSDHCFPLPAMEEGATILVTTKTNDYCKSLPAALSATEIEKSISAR

T3: mouse BCMA with a His tag (ACROBiosystems, Catalog No.: BCA-M52H3) (mouse)
T3 construct: Bought His-tagged recombinant protein
T3 chain: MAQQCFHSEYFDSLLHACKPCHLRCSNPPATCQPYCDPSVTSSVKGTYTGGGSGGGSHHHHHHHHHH


What was measured:
[1] = target: T1, human BCMA with a His tag …; assay: SPR, Biacore T200
Method: The binding affinity of select anti-BCMA was measured on a surface plasmon resonance (SPR) instrument, Biacore T200™, against human BCMA by a method known in the art.
In experiments performed essentially as described above, a subset of anti-human BCMA antibodies of the present disclosure bind human BCMA with a His tag (ACROBiosystems, Beijing, China, Catalog No.: BCA-H522y, SEQ ID NO:2) with affinity shown in Table 6.

[2] = target: T1, human BCMA with a His tag …; assay: ELISA, plate-coated human BCMA-His
Method: (§1) The recombinantly expressed antibodies were used to assess binding activity to BCMA of different species origins by conventional ELISA according to the known art. Recombinant human BCMA, cyno BCMA, and mouse BCMA were coated onto ELISA plates to detect binding at serially diluted concentrations of the anti-BCMA antibody preparations.
(§2) The ability for antibodies of the present disclosure to bind human BCMA was measured with an ELISA assay. For the BCMA binding assay, a 96-well plate (Nunc) is coated with human BCMA with a His tag (ACROBiosystems, Catalog No.: AC108P1-180611F2-Bulk, SEQ ID NO:2) at 0.2 μg/well overnight at 4° C. Wells are blocked for 2 h with blocking buffer (PBS containing 3% bovine serum albumin). Wells are washed three times with PBS containing 0.1% Tween-20. Anti-human BCMA antibodies of the present disclosure or control IgG (100 μL) is then added and incubated at room temperature for 1 h. After washing, the plate is incubated with 100 μL of goat anti-mouse IgG Fcγ Fragment Specific-HRP conjugate (Jackson ImmunoResearch) at room temperature for 1 h. The plates are washed and then incubated with 100 μL of 3,3′,5,5′-tetra-methylbenzidine. The absorbance at 450 nm is read on a microplate reader. The half maximal effective concentration (EC50) is calculated using GraphPad Prism 6 software.
In experiments performed essentially as described above, anti-human BCMA antibodies of the present disclosure bind human BCMA with a His tag (ACROBiosystems, Beijing, China, Catalog No.: BCA-H522y, SEQ ID NO:2) with an EC50 values shown in Table 3.

[3] = target: T2, BCMA on cells (293T cells transfected …); assay: flow cytometry, H929 cells
Method: A cell line expressing BCMA, H929, was used to assess binding by anti-BCMA antibodies on the native protein on the cell surface by flow cytometry according to the known art. A subset of anti-human BCMA antibodies were assayed for binding to H929 and the fraction of cells bound the labeled antibody above background defined by control is shown in Table 8.

[4] = target: T2, BCMA on cells (293T cells transfected …); assay: flow cytometry, 293T cells transfected with BCMA, above parental 293T background
[5] = target: T2, BCMA on cells (293T cells transfected …); assay: flow cytometry, H929 cells; remark: listed apart in the source
[6] = target: T3, mouse BCMA with a His tag …; assay: ELISA, plate-coated mouse BCMA-His
Method: as §1, §2
In experiments performed essentially as described above, anti-human BCMA antibodies of the present disclosure bind mouse BCMA with a His tag (ACROBiosystems, Beijing, China, Catalog No.: BCA-M52H3, SEQ ID NO:109) with an EC50 values shown in Table 5.

| Binder | Kd [1] [nM] | koff [1] [s⁻¹] | kon [1] [M⁻¹ s⁻¹] | EC50 [2] [ng/mL] | Positive (%) [3] [%] | Positive (%) [4] [%] | Mean fluorescent intensity [5] | EC50 [6] [ng/mL] |
| --- | --- | --- | --- | --- | --- | --- | --- | --- |
| SCT-Aa06(m/m) (antibody, V domains shown, Full IgG format: mouse IgG1 heavy chain constant region, mouse kappa light chain constant region) VH: EVQLQQSGPELVKPGNSVKISCKASGYSFTGYFMNWVMQSHGKSLEWIGRINPYNGDTFYNQKFKGKATLTVDKSSSTAHMELRSLTSEDSAVYYCARLDYTNYNSYPMDYWGQGTSVTVSS VL: DIQMTHTTSSLSASLGDRVTISCSASQGISNYLNWYLQKPDGTVKLLIYYTSNLHSGVPSRFSGSGSGTDFSLTISNLQPEDIATYYCQQYSKFPWTFGGGTKLEIK | 5.16 | 0.0163 | 3.15e+06 | 2.34 | 99.9 | 91.6 | 4300 |  |
| SCT-Aa08(h/h) (antibody, V domains shown, Full IgG format, chimeric: human IgG1 heavy chain constant region, human kappa light chain constant region) VH: QVQLQQSDAELVKPGASVKISCKVSGYTFIDHTIHWMKQRPEQGLEWIGYIYPRIDSSKCNEKFKDKATLTADKSSNTAYIQLNSLTSEDSAVYFCARWDYEGFDYWGQGTTLTVSS VL: DIVMTQSPATLSVTPGDRVSLSCRASQSISDYLHWYQQKSHESPRLLIKYASQSISGIPSRFSGSGSGSDFTLSINSVEPEDVGVYYCQNGHSFPPTFGSGTKLEIK | 17.6 | 0.0592 | 3.36e+06 | 3.74 | 92.5 | 57.5 | 454 | 377 |
| SCT-Aa19(h/h) (antibody, V domains shown, Full IgG format, chimeric: human IgG1 heavy chain constant region, human kappa light chain constant region) VH: QVQLQQSGPELVKPGASVRISCKASGCTFTDYYIHWVKQRPGQGLEWIGWIYPGNLNSKFNEKFRDKATLTADNSSSTAYMQLSSLTSEDSAVYFCARYNYEGYFDYWGQGTTLTVSS VL: DIVMTQSPATLSVTPGDRVSLSCRASQSIADSLHWYQQKSHESPRLLIKYASHSISGIPSRFRGSGSGSDFTLSINSVEPEDVGVYYCQNGHSFPLTFGAGTKLELK | 1.19 | 0.0062 | 5.21e+06 | 3.38 | 85.1 | 51 | 351 |  |
| SCT-Aa11(m/m) (antibody, V domains shown, Full IgG format: mouse IgG1 heavy chain constant region, mouse kappa light chain constant region) VH: QVQLQQSDAELVKPGASVKISCKVSGYTFTDHTIHWMKQRPEQGLEWIGYIFPRDGTTKFNEMFKGKATLTADKSSSTAYMELNSLTSEDSAVYFCARWDYEGFDYWGQGTTLTVSS VL: DIVMTQSPATLSVTPGDRVSLSCRASQSISDYLHWYQQKSHESPRLLIKYASQFISGIPSRFRGSGSGSDFTLSINSVEPEDVGVYYCQNGHSFPPTFGSGTKLEIK | 42 | 0.0945 | 2.25e+06 | 2.38 | 99.9 | 34.6 | 1520 |  |
| SCT-Aa11(h/h) (antibody, V domains shown, Full IgG format, chimeric: human IgG1 heavy chain constant region, human kappa light chain constant region) VH: QVQLQQSDAELVKPGASVKISCKVSGYTFTDHTIHWMKQRPEQGLEWIGYIFPRDGTTKFNEMFKGKATLTADKSSSTAYMELNSLTSEDSAVYFCARWDYEGFDYWGQGTTLTVSS VL: DIVMTQSPATLSVTPGDRVSLSCRASQSISDYLHWYQQKSHESPRLLIKYASQFISGIPSRFRGSGSGSDFTLSINSVEPEDVGVYYCQNGHSFPPTFGSGTKLEIK | 47.1 | 0.113 | 2.4e+06 | 3.85 | 53.7 | 34.9 | 179 |  |
